Results as given in patent publication US20250332297A1, “DLL3-SPECIFIC BINDING CONSTRUCTS AND THEIR USE IN RADIOTHERAPY” (MOLECULAR PARTNERS AG, priority 2024, published 2025).

Tests used:
[1] = target: T1, human DLL3 (Homo sapiens, UniProt Q9NYJ7); experiment: SPR multi-trace analysis, binding to human DLL3 (Example 1); details: immobilized bio-DLL3 (hDLL3 ECD), PBS pH 7.4, 1:1 Langmuir, Table 1
T1 construct: (Q9NYJ7, Gene ID: 10683, residues 27 to 466; purchased from Evitria); 3C protease recognition site (C); Fc knob into hole (C); purchased Evitria
T1 sequence (Q9NYJ7 27-466): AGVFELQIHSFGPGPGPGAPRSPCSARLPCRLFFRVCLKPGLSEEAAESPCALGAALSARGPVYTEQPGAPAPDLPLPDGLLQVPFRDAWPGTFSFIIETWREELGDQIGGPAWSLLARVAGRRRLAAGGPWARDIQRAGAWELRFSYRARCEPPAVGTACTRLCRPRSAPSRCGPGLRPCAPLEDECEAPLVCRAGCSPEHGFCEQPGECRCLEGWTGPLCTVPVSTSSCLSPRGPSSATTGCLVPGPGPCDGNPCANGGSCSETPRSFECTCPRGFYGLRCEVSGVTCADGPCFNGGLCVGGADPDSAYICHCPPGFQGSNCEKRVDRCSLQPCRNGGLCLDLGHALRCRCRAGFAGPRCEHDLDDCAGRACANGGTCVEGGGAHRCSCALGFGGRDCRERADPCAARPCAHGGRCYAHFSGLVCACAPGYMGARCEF
Procedure: Kinetic binding parameters and binding affinities of two domain (2D) ankyrin repeat proteins comprising an ankyrin repeat domain with binding specificity for DLL3 and an ankyrin repeat domain with binding specificity for serum albumin were determined by surface plasmon resonance (SPR) multi-trace analysis.
In brief, a SPR assay was used to determine the binding kinetics to the target human DLL3. The data were generated using BioRad ProteOn instrument in SPR running buffer (PBS, pH 7.4 containing 0.005% Tween 20®). […] The chip was coated with biotinylated target (bio-DLL3) to reach a signal intensity of 1780 RU. All analytes (3-fold dilution ranging from 300-33.3 nM) were injected in succession for 240 s (100 μl/min) and dissociation was recorded for 10800 s (100 μl/min). Each injection was followed by a regeneration step with 16 mM H3PO4 for 18 s. […] The bio-DLL3 target used was as described in U.S. 63/550,951, i.e. the extracellular domain (ECD) of human DLL3 protein (Q9NYJ7, Gene ID: 10683, residues 27 to 466; purchased from Evitria) linked via an Avi-tag (for site-directed biotinylation), followed by a 3C protease recognition site, to a Fc knob into hole (hDLL3 ECD-Avi-Fckih).

[2] = test system: NCI-H82 tumor model; experiment: Biodistribution of radio-labelled DARPin conjugates in NCI-H82 tumor model; details: for Blood % ID/g / Kidneys % ID/g / Tumors % ID/g: mouse, in vivo, iv, 0.01 mg/kg; for T:K ratio: R2G2 mice
Procedure: NCI-H82 tumor model. R2G2 mice were purchased from Envigo. All studies were conducted under the approval of the institutional IACUC committee. Animals were maintained under specific-pathogen-free (SPF) conditions with daily cycles of light and darkness (12 h/12 h), in line with ethical guidelines. No manipulations were performed during the first 5 days after arrival, to allow the animals to acclimatize to the new environment. All mice were monitored daily for assessment of physical condition and general well-being. NCI-H82 cells were purchased from ATCC (Catalog No. HTB-175). Solid xenografts were established by subcutaneous (SQ) injection of NCI-H82 cells in RPMI media mixed 1:1 with Corning® Matrigel® basement membrane matrix (GFR; Corning, Cat No 354230.). Cells were quantified using Countess cell counter. Each mouse was injected SQ with 5×10^6 NCI-H82 cells in 100 μL RPMI/GFR-Matrigel into the right flank of each mouse. Tumor volumes were estimated three times per week through calipering, according to the formula: volume=0.5×length×width^2 and grown until they reached 200-300 mm^3. Tumor-associated antigen level expressed in tumors, tumor vascularization profile and DLL3 soluble form in mouse serum was tested.
Biodistribution study. […] Radio-labeled (Pb-212) DARPin conjugates were then injected at 0.01 mg/kg (10 μCi DARPin conjugates) into the tail vein of R2G2 mice (females) xenografted subcutaneously (at age of about 7 weeks) with NCI-H82 cells (5 million cells, growth factor reduced Matrigel) and bearing tumors (5-10 mm in diameter). […] Biodistribution was monitored at 4 h and 24h post-injection. Mice were euthanized by CO2 inhalation and cervical dislocation. Blood, spleen, kidneys, liver and tumor were extracted, weighed and the radioactivity was determined with a γ-counter counter (such as Wizard^22470, Perkin Elmer). The data were expressed as the % injected dose/gram (% ID/g).
Radio-labeled (Pb-212) DARPin conjugates were then injected at 0.01 mg/kg (10 μCi DARPin conjugates) into the tail vein of R2G2 mice (females) xenografted subcutaneously (at age of about 7 weeks) with NCI-H82 cells (5 million cells, growth factor reduced Matrigel) and bearing tumors (5-10 mm in diameter). Biodistribution was monitored at 4 h and 24h post-injection. Mice were euthanized by CO2 inhalation and cervical dislocation. Kidneys and tumor were extracted, weighed and the radioactivity was determined with a γ-counter counter (such as Wizard^22470, Perkin Elmer). The data were expressed as the % injected dose/gram (% ID/g) and the tumor to kidney (T:K) ratio was determined.
Radio-labelled (Pb-212) DARPin conjugates were then injected at 0.01 mg/kg (10 μCi DARPin conjugates) (i) into the tail vein of R2G2 mice (females) xenografted subcutaneously (at age of about 7 weeks) with NCI-H82 cells (5 million cells, growth factor reduced Matrigel) and bearing tumors (5-10 mm in diameter), and (ii) into the tail vein of athymic nude mice (females) xenografted subcutaneously (at age of about 7 weeks) with hDLL3-MC38 cells (5 million cells, growth factor reduced Matrigel) and bearing tumors (5-10 mm in diameter). Biodistribution was monitored at 4 h and 24h post-injection. Mice were euthanized by CO2 inhalation and cervical dislocation. Blood, bladder, small intestine, colon, spleen, kidneys, liver, lung, heart, tail and tumor were extracted, weighed and the radioactivity was determined with a γ-counter (such as Wizard^22470, Perkin Elmer). The data were expressed as the % injected dose/gram (% ID/g).

[3] = target: human serum albumin (Homo sapiens, UniProt P02768); experiment: SPR binding to human serum albumin (Example 1); set-up: purchased CSL; details: immobilized HSA, 1:1 Langmuir, Table 2
Procedure: Similarly, a SPR assay was used to determine the binding kinetics to human or mouse serum albumin. […] All analytes (3-fold dilution ranging from 1000-12.35 nM) were injected in succession for 240 s (25 μl/min) and dissociation was recorded for 600 s (25 μl/min). […] The obtained SPR traces were used to determine the ankyrin repeat protein-serum albumin interaction parameters, summarized in Table 2.

| Molecule | Kd [1] [nM] | koff [1] [s⁻¹] | kon [1] [M⁻¹ s⁻¹] | Blood % ID/g ([2]; 4 h) [% ID/g] | Kidneys % ID/g ([2]; 4 h) [% ID/g] | Tumors % ID/g ([2]; 4 h) [% ID/g] | Blood % ID/g ([2]; 24 h) [% ID/g] | Kidneys % ID/g ([2]; 24 h) [% ID/g] | Tumors % ID/g ([2]; 24 h) [% ID/g] | Kd [3] [nM] | Koff HSA [3] [s⁻¹] | Kon HSA [3] [M⁻¹ s⁻¹] | T:K ratio ([2]; Pb-212 DOTAM conjugate 0.01 mg/kg (10 μCi) i.v., s.c. NCI-H82, 24 h, Example 9) | T:K ratio ([2]; Pb-212 conjugate, NCI-H82 cells xenografted intravenously instead of subcutaneously, 24 h (data not shown)) |
| --- | --- | --- | --- | --- | --- | --- | --- | --- | --- | --- | --- | --- | --- | --- |
| MAM279: Two domain (2D) ankyrin repeat protein: serum albumin-specific domain (SEQ ID NO: 7), PT linker, DLL3-specific domain of MAM093 (protein, Ankyrin repeat protein (MAM279)) DLGKKLLEAARAGQDDEVRELLKAGADVNAKDYFSHTPLHLAARNGHLKIVEVLLKAGADVNAKDFAGKTPLHLAADAGHLEIVEVLLKAGADVNAQDIFGKTPADIAADAGHEDIAEVLQKAAGSPTPTPTTPTPTPTTPTPTPTGSDLGKKLLAAAAQGQDDEVRELLKAGANVNAKDLFGYTPLHLAAWRGHLEIVEVLLKAGADVNAKDAAGETPLHLAAWFGHLEIVEVLLKAGADVNAQDLQGKTPADLAAKEGHEDIAEVLQKAA | 0.616 | 1.44e-05 | 23300 | 23 | 11 | 8 | 13 | 25 | 29 | 75 | 0.00923 | 123000 |  |  |
| MAM283: Two domain (2D) ankyrin repeat protein: serum albumin-specific domain (SEQ ID NO: 7), PT linker, DLL3-specific domain (SEQ ID NO: 3) (protein, Ankyrin repeat protein (MAM283)) DLGKKLLEAARAGQDDEVRELLKAGADVNAKDYFSHTPLHLAARNGHLKIVEVLLKAGADVNAKDFAGKTPLHLAADAGHLEIVEVLLKAGADVNAQDIFGKTPADIAADAGHEDIAEVLQKAAGSPTPTPTTPTPTPTTPTPTPTGSDLGKKLLAAAADGQDDEVRELLQAGADVNAKDLFGYTPLHLAAWRGHLEIVEVLLEAGADVNAKDAAGETPLHLAAWFGHLEIVEVLLEAGADVNAQDVQGKTPADLAAKEGHEDIAEVLQQAA | 0.953 | 1.79e-05 | 18800 |  |  |  |  |  |  | 103 | 0.00924 | 89500 |  |  |
| MAM279 conjugate: SEQ ID NO: 15 conjugated to DOTAM-maleimide, labelled with Pb-212 (natural lead in PK studies) (conjugate, DOTAM-maleimide, Pb-212 label; Ankyrin repeat protein with tag (GS-MAM279-tag)) GSDLGKKLLEAARAGQDDEVRELLKAGADVNAKDYFSHTPLHLAARNGHLKIVEVLLKAGADVNAKDFAGKTPLHLAADAGHLEIVEVLLKAGADVNAQDIFGKTPADIAADAGHEDIAEVLQKAAGSPTPTPTTPTPTPTTPTPTPTGSDLGKKLLAAAAQGQDDEVRELLKAGANVNAKDLFGYTPLHLAAWRGHLEIVEVLLKAGADVNAKDAAGETPLHLAAWFGHLEIVEVLLKAGADVNAQDLQGKTPADLAAKEGHEDIAEVLQKAAGSGSC |  |  |  |  |  |  |  |  |  |  |  |  | above 1 | above 1 |
| MAM160: Two domain (2D) ankyrin repeat protein: serum albumin-specific domain (SEQ ID NO: 7), PT linker, DLL3-specific domain MAM120 (protein, Ankyrin repeat protein (MAM160)) DLGKKLLEAARAGQDDEVRELLKAGADVNAKDYFSHTPLHLAARNGHLKIVEVLLKAGADVNAKDFAGKTPLHLAADAGHLEIVEVLLKAGADVNAQDIFGKTPADIAADAGHEDIAEVLQKAAGSPTPTPTTPTPTPTTPTPTPTGSDLGTKLLSAAADGQDDEVRELLQAGADVNAKDLFGYTPLHLAAWRGHLEIVEVLLEAGADVNAKDAAGLTPLHLAAWFGHLEIVEVLLEAGADVNAQDVQGVTPADLAAKEGHEDIAEVLQQAA | 1.99 | 2.01e-05 | 10100 | 13.8 | 12.4 | 7.1 | 3.2 | 18.7 | 13.3 | 95.9 | 0.0105 | 110000 |  |  |
| MAM282: Two domain (2D) ankyrin repeat protein: serum albumin-specific domain (SEQ ID NO: 7), PT linker, DLL3-specific domain (SEQ ID NO: 2) (protein, Ankyrin repeat protein (MAM282)) DLGKKLLEAARAGQDDEVRELLKAGADVNAKDYFSHTPLHLAARNGHLKIVEVLLKAGADVNAKDFAGKTPLHLAADAGHLEIVEVLLKAGADVNAQDIFGKTPADIAADAGHEDIAEVLQKAAGSPTPTPTTPTPTPTTPTPTPTGSDLGKKLLAAAREGQDDEVRELLKAGADVNAKDIWGQTPLHIAAWFGHLEIVEVLLKAGADVNAKDQTGHTPLHLAAKFGHLEIVEVLLKAGADVNAQDLLGRTPADLAAEEGHEDIAEVLQKAA | 3.03 | 3.79e-05 | 12500 |  |  |  |  |  |  | 74.3 | 0.00889 | 120000 |  |  |
